Data reported in patent US6043072, “Nucleic acids encoding Taxus geranylgeranyl diphosphate synthase, and methods of use” (Washington State University Research Foundation, dated 2000).

Biological target: the molecule itself
Assay: gel permeation chromatography on calibrated Superdex G-75 (about 60,000 against the predicted monomer of 32.1 kDa) with SDS-PAGE; self-association (homodimer)
Experimental: After centrifugation as above, the cell pellet was resuspended in 80 ml of ice cold 50 mM Tris (pH 7.6) containing 10% (v/v) glycerol, 10 mM MgCl_2, 5 mM DTT, and 1 μg/ml leupeptin (extraction/assay buffer). All subsequent operations were conducted at 0–4° C. Cells were disrupted with 150 ml glass beads using a Biospec Bead-Beater operated at 90 V for 5 min, and the resulting debris was removed by centrifugation at 3000 g for 20 min to yield a supernatant that was further clarified by centrifugation at 31,000 g for 20 min. The resulting supernatant was used as the enzyme source.

B1: T. canadensis GGPP synthase Tr^295 truncated protein (enzyme)
chain: FDFNEYMKSKAVAVDAALDKAIPLEYPEKIHESMRYSLLAGGKRVRPALCIAACELVGGSQDLAMPTACAMEMIHTMSLIHDDLPCMDNDDFRRGKPTNHKVFGEDTAVLAGDALLSFAFEHIAVATSKTVPSDRTLRVISELGKTIGSQGLVGGQVVDITSEGDANVDLKTLEWIHIHKTAVLLECSVVSGGILGGATEDEIARIRRYARCVGLLFQVVDDILDVTKSSEELGKTAGKDLLTDKATYPKLMGLEKAKEFAAELATRAKEELSSFDQIKAAPLLGLADYIAFRQN
- binding result: binds
